Patent publication US20230332136A1, “IL-17 RECEPTOR MODULATOR SCREENING SYSTEM” (New York University, priority 2022, published 2023)

Key:
hIL-17RA/RC = molecular target: T1, hIL-17RA/RC (Homo sapiens, UniProt Q8NAC3+Q96F46); assay: hADIR-17 dmCherry reporter assay (clonal cell line); format: cell-based; conditions: activator screen, increasing doses (FIG. 12)
T1 construct: expressed in transfected cells; host or cells: MEF cells stably transduced with retroviral constructs (clonal hADIR-17 line)
T1 sequence (Q96F46 33-866): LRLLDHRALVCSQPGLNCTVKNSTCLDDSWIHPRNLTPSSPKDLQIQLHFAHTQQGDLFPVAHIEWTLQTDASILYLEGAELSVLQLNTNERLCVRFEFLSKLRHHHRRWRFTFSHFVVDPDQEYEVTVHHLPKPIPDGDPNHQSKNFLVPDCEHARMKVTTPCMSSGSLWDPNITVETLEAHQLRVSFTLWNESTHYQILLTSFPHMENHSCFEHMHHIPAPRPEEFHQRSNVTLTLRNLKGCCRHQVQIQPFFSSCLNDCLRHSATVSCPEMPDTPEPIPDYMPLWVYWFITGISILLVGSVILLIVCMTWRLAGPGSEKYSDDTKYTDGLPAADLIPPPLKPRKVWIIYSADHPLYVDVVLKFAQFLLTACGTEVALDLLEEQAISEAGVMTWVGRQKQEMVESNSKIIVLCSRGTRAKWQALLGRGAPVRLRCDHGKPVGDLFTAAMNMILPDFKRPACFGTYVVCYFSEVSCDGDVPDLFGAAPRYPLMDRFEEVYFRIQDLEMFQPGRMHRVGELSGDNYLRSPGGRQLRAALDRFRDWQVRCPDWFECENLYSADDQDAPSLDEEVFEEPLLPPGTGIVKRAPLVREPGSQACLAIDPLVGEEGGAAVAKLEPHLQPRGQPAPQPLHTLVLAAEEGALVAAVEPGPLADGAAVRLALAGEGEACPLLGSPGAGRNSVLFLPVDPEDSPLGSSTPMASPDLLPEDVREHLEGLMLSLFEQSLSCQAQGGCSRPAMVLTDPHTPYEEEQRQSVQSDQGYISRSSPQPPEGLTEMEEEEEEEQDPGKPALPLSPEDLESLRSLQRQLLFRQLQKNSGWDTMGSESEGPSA
T1 sequence (Q8NAC3 21-705 isoform Q8NAC3-3 limits assumed): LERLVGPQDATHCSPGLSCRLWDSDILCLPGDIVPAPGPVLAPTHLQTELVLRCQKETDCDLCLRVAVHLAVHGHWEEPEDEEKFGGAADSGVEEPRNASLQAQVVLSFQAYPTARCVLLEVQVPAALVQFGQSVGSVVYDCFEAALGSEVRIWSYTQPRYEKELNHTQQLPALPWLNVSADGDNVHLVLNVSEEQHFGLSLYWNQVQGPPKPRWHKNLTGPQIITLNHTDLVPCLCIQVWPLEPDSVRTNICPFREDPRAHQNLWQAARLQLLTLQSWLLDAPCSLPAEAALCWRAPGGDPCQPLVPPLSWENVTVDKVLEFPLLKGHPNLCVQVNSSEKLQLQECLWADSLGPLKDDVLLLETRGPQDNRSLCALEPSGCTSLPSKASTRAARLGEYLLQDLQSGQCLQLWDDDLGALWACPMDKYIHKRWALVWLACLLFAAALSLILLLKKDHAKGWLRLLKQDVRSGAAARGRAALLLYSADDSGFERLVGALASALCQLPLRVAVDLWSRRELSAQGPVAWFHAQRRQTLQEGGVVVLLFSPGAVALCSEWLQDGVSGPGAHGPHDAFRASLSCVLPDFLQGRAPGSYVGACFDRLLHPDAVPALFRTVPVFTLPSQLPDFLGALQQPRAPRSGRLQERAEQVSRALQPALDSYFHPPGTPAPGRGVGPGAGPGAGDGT
Protocol: FIG. 9 provides a graphical depiction of constructs for use with human IL-17 receptors. Similar retroviral transfer plasmid constructs as mouse, with human cDNA sequences replacing mouse cDNA. Exogenous hIL-17RA is provided for a functional hADIR system. hIL-17RC, RB, RE constructs are added last separately to MEF cells already stably transduced with the other three required components, generating 3 independent cell lines.
(§1) Mouse constructs were produced as depicted in the panels of FIG. 1. Human sequence constructs were produced as in the panels of FIG. 9, where mouse cDNA constructs were replaced by human cDNA constructed. In the mouse ADIR system exogenous IL-17RC was not provided because the cell line (mouse embryonic fibroblasts) have endogenous IL-17RC expression. In the hADIR system, human components used for the hADIR system (hRA, hRC, hRB, hAct1) were expressed from added polynucleotides.
The data reflected in the Figures utilized a reporter system specifically designed for Act1-dependent IL-17 signaling pathways. The reporter system is based at least in part on the principle that the engagement of active cognate ligands, and the interaction between Act1 and IL-17 receptors is required for active signaling of IL-17A/F, IL-17E, and IL-17C. The protein-protein-interaction (PPI) based reporter system is highly specific and easily scalable. The disclosure is illustrated using mouse and human systems. For the data presented in the Figures, the system comprised a three-part reporter system specifically designed for detecting IL-17A/F, IL-17E, and IL-17C signaling. The PPI-based reporter system provides for detecting active signaling, and is specific for each of the IL-17 family cytokines. […] Each of the retroviral vectors can contain a unique selection or fluorescent marker to enable efficient generation and maintenance of stable cell lines (for example, Puromycin resistance for m/hIL-17RC(RB, RE)-TSC-tTA; EBFP for m/hAct1-TEV; Neomycin resistance and mVenus fluorescence for TRE-dmCherry-PEST, and Thy1.1 for m/hRA).

IL-17RA/RC = molecular target: T2, IL-17RA/RC (Mus musculus, UniProt Q60943+Q8K4C2); assay: mADIR-17 dmCherry reporter assay in MEF cells (flow cytometry); format: cell-based; conditions: for dmCherry signal produced: after 24 hrs (FIG. 7)
T2 construct: Full length IL-17RC in the purified ADIR system; expressed in transfected cells; host or cells: mouse embryonic fibroblasts (MEF), retrovirally transduced
T2 sequence (Q60943 32-864): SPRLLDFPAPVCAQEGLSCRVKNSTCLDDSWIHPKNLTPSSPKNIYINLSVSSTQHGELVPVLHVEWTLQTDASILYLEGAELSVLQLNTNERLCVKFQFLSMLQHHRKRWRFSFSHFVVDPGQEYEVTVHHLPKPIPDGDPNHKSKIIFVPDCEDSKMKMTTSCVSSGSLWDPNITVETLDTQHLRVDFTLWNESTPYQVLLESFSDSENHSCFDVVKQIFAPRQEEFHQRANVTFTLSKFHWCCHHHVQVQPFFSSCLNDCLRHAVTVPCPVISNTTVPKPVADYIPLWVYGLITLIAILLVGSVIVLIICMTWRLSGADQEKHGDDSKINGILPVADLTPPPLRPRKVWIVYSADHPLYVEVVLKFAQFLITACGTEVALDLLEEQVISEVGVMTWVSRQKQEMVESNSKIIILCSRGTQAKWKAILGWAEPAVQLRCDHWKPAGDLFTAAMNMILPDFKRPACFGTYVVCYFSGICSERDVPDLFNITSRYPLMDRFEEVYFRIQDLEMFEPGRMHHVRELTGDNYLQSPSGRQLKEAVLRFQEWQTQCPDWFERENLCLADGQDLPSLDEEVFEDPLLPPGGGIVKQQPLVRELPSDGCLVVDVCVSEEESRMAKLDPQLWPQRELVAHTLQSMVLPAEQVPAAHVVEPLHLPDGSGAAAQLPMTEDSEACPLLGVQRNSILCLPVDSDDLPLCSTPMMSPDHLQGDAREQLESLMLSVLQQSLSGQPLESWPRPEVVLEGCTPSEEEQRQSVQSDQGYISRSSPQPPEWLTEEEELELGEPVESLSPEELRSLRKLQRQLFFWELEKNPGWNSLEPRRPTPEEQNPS
T2 sequence (Q8K4C2 22-698): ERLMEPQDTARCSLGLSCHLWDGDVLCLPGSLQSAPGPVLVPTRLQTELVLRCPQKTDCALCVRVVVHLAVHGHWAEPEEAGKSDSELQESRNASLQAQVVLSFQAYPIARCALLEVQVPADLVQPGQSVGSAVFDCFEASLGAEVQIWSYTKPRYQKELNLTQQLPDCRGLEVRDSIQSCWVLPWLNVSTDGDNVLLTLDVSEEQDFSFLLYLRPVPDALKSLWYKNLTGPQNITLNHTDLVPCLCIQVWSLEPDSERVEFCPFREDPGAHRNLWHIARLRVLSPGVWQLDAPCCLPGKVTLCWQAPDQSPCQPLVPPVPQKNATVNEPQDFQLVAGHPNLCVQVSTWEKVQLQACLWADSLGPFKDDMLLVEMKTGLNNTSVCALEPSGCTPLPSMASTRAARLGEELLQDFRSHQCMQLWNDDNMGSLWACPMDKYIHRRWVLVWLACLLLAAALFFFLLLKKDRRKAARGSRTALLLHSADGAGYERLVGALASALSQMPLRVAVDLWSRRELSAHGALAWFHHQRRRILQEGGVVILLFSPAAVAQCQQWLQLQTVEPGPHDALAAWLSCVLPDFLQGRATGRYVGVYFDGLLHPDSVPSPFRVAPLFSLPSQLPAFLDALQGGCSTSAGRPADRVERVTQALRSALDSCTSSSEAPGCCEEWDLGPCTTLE
Description: Unless defined otherwise herein, all technical and scientific terms used in this disclosure have the same meaning as commonly understood by one of ordinary skill in the art to which this disclosure pertains. Where the term “ADIR” is used herein it means ACT1-Dependent IL-17 Receptor Modulator Screening System. The preface “m” means mouse and the prefix “h” means human.
as §1
The data reflected in the Figures utilized a reporter system specifically designed for Act1-dependent IL-17 signaling pathways. The reporter system is based at least in part on the principle that the engagement of active cognate ligands, and the interaction between Act1 and IL-17 receptors is required for active signaling of IL-17A/F, IL-17E, and IL-17C. The protein-protein-interaction (PPI) based reporter system is highly specific and easily scalable. The disclosure is illustrated using mouse and human systems. For the data presented in the Figures, the system comprised a three-part reporter system specifically designed for detecting IL-17A/F, IL-17E, and IL-17C signaling. The PPI-based reporter system provides for detecting active signaling, and is specific for each of the IL-17 family cytokines. The system that is responsive to binding of IL-17A and IL-17F comprises (1) an Act1-tobacco etch virus (TEV) protease fusion protein, which upon active IL-17A/F binding to the IL-17RA/RC receptor heterodimer on a target cell, will be recruited to (2) IL-17RC fused with a TEV cleavage site(TSC)-tTA (a transcriptional transactivator that binds to tetracycline responsive element, or TRE), releasing tTA, which will subsequently translocate into the nucleus where a (3) TRE-dmCherry-PEST (destabilized mCherry) element is integrated into the genome. tTA binds to the TRE to drive dmCherry expression in the target modified cell. The three described components, Act1-TEV, IL-17RC-TSC-tTA, and TRE-dmCherry-PEST, along with IL-17RA, can be delivered by retro or lenti-viral vectors or guide-RNA directed nucleases, or recombinase systems, or by homologous recombination, into mouse embryonic fibroblasts (MEF) or other mammalian cell lines, establishing stable reporter cell lines. Using the same principle, IL-17RC-TSC-tTA can be replaced with IL-17RB-TSC-tTA in the described system to provide for IL-17E (IL-25) binding, and with IL-17RE-TSC-tTA for detecting IL-17C binding. A parallel approach involves attaching the fusion protein of —TSC-tTA to the RA component and three independent system cell lines generated by supplementing RC/RB/RE, Act1-TEV, and TRE-dmCherry reporter components. Each of the retroviral vectors can contain a unique selection or fluorescent marker to enable efficient generation and maintenance of stable cell lines (for example, Puromycin resistance for m/hIL-17RC(RB, RE)-TSC-tTA; EBFP for m/hAct1-TEV; Neomycin resistance and mVenus fluorescence for TRE-dmCherry-PEST, and Thy1.1 for m/hRA).

## hIL-17A: human IL-17A cytokine, cognate ligand in the hADIR-17 system
hIL-17RA/RC
  dmCherry signal response of hADIR-17 clone to ligand: dose-dependent response

## hIL-17F: human IL-17F cytokine, cognate ligand in the hADIR-17 system
hIL-17RA/RC
  dmCherry signal response of hADIR-17 clone to ligand: dose-dependent response

B1: IL-17F: mouse IL-17 family cytokine, cognate ligand of IL-17RA/RC (protein, UniProt Q7TNI7 29-161, looked up)
Interleukin-17F: RKNPKAGVPALQKAGNCPPLEDNTVRVDIRIFNQNQGISVPREFQNRSSSPWDYNITRDPHRFPSEIAEAQCRHSGCINAQGQEDSTMNSVAIQQEILVLRREPQGCSNSFRLEKMLLKVGCTCVKPIVHQAA
IL-17RA/RC; 0.4 ng/ml
  dmCherry signal produced: 0.48%
IL-17RA/RC; 2 ng/ml
  dmCherry signal produced: 0.81%
IL-17RA/RC; 10 ng/ml
  dmCherry signal produced: 3.32%
IL-17RA/RC; 50 ng/ml
  dmCherry signal produced: 13.8%

B2: IL-25: IL-25 (IL17E), noncognate ligand for the mADIR-17 system; binds IL-17RA/RB (protein, UniProt Q8VHH8 17-169, looked up)
Interleukin-25: VSLRIQEGCSHLPSCCPSKEQEPPEEWLKWSSASVSPPEPLSHTHHAESCRASKDGPLNSRAISPWSYELDRDLNRVPQDLYHARCLCPHCVSLQTGSHMDPLGNSVPLYHNQTVFYRRPCHGEEGTHRRYCLERRLYRVSLACVCVRPRVMA
IL-17RA/RC; noncognate ligand, any doses, after 24 hrs, listed as mIL-17E
  responsiveness of mADIR-17 cells (dmCherry signal) to ligand: not responsive

B3: hIL-25: human IL-25, non-cognate ligand for hADIR-17; cognate ligand of the hADIR-25 system (protein, UniProt Q9H293 33-177, looked up)
Interleukin-25: YSHWPSCCPSKGQDTSEELLRWSTVPVPPLEPARPNRHPESCRASEDGPLNSRAISPWRYELDRDLNRLPQDLYHARCLCPHCVSLQTGSHMDPRGNSELLYHNQTVFYRRPCHGEKGTHKGYCLERRLYRVSLACVCVRPRVMG
hIL-17RA/RC
  dmCherry signal response of hADIR-17 clone to ligand: does not respond
